In patent US20090181057A1 (BOARD OF TRUSTEES OF THE UNIVERSITY OF ILLINOIS, published 2009):

Assays:
[1] = target: T1, von Willebrand factor (vWF), purified human (human, UniProt P04275 764-2813); test: flow cytometry of CHO cells with purified VWF and ristocetin, anti-VWF monoclonal antibody
T1 construct: Purified vWF in the flow cytometry and capillary adhesion assays; the vWF of the donor's plasma in the assays with platelet-rich plasma; also called purified vWF
Protocol: Flow Cytometric Analysis of VWF Binding to GPIb-IX-expressing Cells—CHO cells expressing wild type (1b9) and mutant GPIb-IX were grown to confluence to synchronize cell growth. The cells were detached using 0.5 mM EDTA in PBS, pH 7.4. Seventy-five percent of the original volume was then replated in Dulbecco's modified Eagle's medium (DMEM) growth media and cultured for 18 h. For VWF binding assays, cells were detached using 0.5 mM EDTA-PBS, pH 7.4, resuspended to a concentration of 2.25×10⁶ cells/ml and incubated in modified Tyrode's buffer (2.5 mM Hepes, 12.1 mM NaHCO₃, 2.36 mM KCl, 0.136 M NaCl, 1 mM CaCl₂, 1 mM MgCl₂, 0.1% D-glucose, 1% BSA, pH 7.4) for 30 min at 4° C. […] After washing once with Tyrode's buffer, cells were further incubated with 10 μg/ml FITC-labeled SZ-29 (a monoclonal antibody against vWF) in the dark at 22° C. for 30 min and then analyzed by flow cytometry. […]
The cells were then analyzed by flow cytometry without washing. […]
To determine the roles of the above described two phosphoserine residues in regulating ligand binding function of GPIb-IX, CHO cell lines bearing wild type and the mutants of GPIb-IX were incubated with purified VWF in the presence of ristocetin (a VWF modulator that induces VWF binding to GPIb-IX). Binding of VWF was determined by flow cytometry using an anti-VWF monoclonal antibody. […]

[2] = target: maltose-binding protein (MBP), conjugated to control beads (UniProt P0AEX9 27-392 = MBP); test: bead pull-down from platelet lysate, anti-GPIbα immunoblot
Protocol: 14-3-3 binding to GPIb-IX. Binding of GPIb-IX to 14-3-3-conjugated beads were performed as previously described (Du et al., J. Biol. Chem., 271:7362-7367 (1996)). Briefly, 14-3-3-conjugated Sepharose 4B beads and maltose-binding protein (MBP)-conjugated control beads were preincubated with various concentrations of synthetic peptides at 4° C. for 1 h, and then with platelet lysates for an additional 1 h. The beads were washed three times. Bound GPIb-IX was detected by Western blot with a monoclonal antibody against GPIbα, WM23.
To examine if the above peptides interfere with 14-3-3 interaction with GPIb-IX, platelet lysates were incubated with beads conjugated with recombinant 14-3-3-maltose-binding protein (MBP) fusion protein in the absence or presence of MPαC or control peptides. GPIb-IX from platelet lysates specifically bound to 14-3-3 beads but not the control MBP-conjugated beads (FIG. 1B).

B1: recombinant wild type GPIb-IX expressed in CHO cells (1b9) (receptor)
chain 1: HPICEVSKVASHLEVNCDKRNLTALPPDLPKDTTILHLSENLLYTFSLATLMPYTRLTQLNLDRCELTKLQVDGTLPVLGTLDLSHNQLQSLPLLGQTLPALTVLDVSFNRLTSLPLGALRGLGELQELYLKGNELKTLPPGLLTPTPKLEKLSLANNNLTELPAGLLNGLENLDTLLLQENSLYTIPKGFFGSHLLPFAFLHGNPWLCNCEILYFRRWLQDNAENVYVWKQGVDVKAMTSNVASVQCDNSDKFPVYKYPGKGCPTLGDEGDTDLYDYYPEEDTEGDKVRATRTVVKFPTKAHTTPWGLFYSWSTASLDSQMPSSLHPTQESTKEQTTFPPRWTPNFTLHMESITFSKTPKSTTEPTPSPTTSEPVPEPAPNMTTLEPTPSPTTPEPTSEPAPSPTTPEPTPIPTIATSPTILVSATSLITPKSTFLTTTKPVSLLESTKKTIPELDQPPKLRGVLQGHLESSRNDPFLHPDFCCLLPLGFYVLGLFWLLFASVVLILLLSWVGHVKPQALDSGQGAALTTATQTTHLELQRGRQVTVPRAWLLFLRGSLPTFRSSLFLWVRPNGRVGPLVAGRRPSALSQGRGQDLLSTVSIRYSGHSL
chain 2: CPAPCSCAGTLVDCGRRGLTWASLPTAFPVDTTELVLTGNNLTALPPGLLDALPALRTAHLGANPWRCDCRLVPLRAWLAGRPERAPYRDLRCVAPPALRGRLLPYLAEDELRAACAPGPLCWGALAAQLALLGLGLLHALLLVLLLCRLRRLRARARARAAARLSLTDPLVAERAGTDES
chain 3: TKDCPSPCTCRALETMGLWVDCRGHGLTALPALPARTRHLLLANNSLQSVPPGAFDHLPQLQTLDVTQNPWHCDCSLTYLRLWLEDRTPEALLQVRCASPSLAAHGPLGRLTGYQLGSCGWQLQASWVRPGVLWDVALVAVAALGLALLAGLLCATTEALD
modifications: Ser166 phosphorylated in CHO cells, as the filing says; phosphoserine 609, as the filing calls it
notes: whole, on cells; On intact CHO cells in flow cytometry and adhesion; in Triton X-100 lysate in the co-immunoprecipitation; No GPV
B1: binds [1].

B2: GPIb-IX with wild type GPIbβ and GPIX and GPIbα S609A, expressed in CHO cells (S609A) (receptor)
chain 1: HPICEVSKVASHLEVNCDKRNLTALPPDLPKDTTILHLSENLLYTFSLATLMPYTRLTQLNLDRCELTKLQVDGTLPVLGTLDLSHNQLQSLPLLGQTLPALTVLDVSFNRLTSLPLGALRGLGELQELYLKGNELKTLPPGLLTPTPKLEKLSLANNNLTELPAGLLNGLENLDTLLLQENSLYTIPKGFFGSHLLPFAFLHGNPWLCNCEILYFRRWLQDNAENVYVWKQGVDVKAMTSNVASVQCDNSDKFPVYKYPGKGCPTLGDEGDTDLYDYYPEEDTEGDKVRATRTVVKFPTKAHTTPWGLFYSWSTASLDSQMPSSLHPTQESTKEQTTFPPRWTPNFTLHMESITFSKTPKSTTEPTPSPTTSEPVPEPAPNMTTLEPTPSPTTPEPTSEPAPSPTTPEPTPIPTIATSPTILVSATSLITPKSTFLTTTKPVSLLESTKKTIPELDQPPKLRGVLQGHLESSRNDPFLHPDFCCLLPLGFYVLGLFWLLFASVVLILLLSWVGHVKPQALDSGQGAALTTATQTTHLELQRGRQVTVPRAWLLFLRGSLPTFRSSLFLWVRPNGRVGPLVAGRRPSALSQGRGQDLLSTVSIRYSGHAL
chain 2: CPAPCSCAGTLVDCGRRGLTWASLPTAFPVDTTELVLTGNNLTALPPGLLDALPALRTAHLGANPWRCDCRLVPLRAWLAGRPERAPYRDLRCVAPPALRGRLLPYLAEDELRAACAPGPLCWGALAAQLALLGLGLLHALLLVLLLCRLRRLRARARARAAARLSLTDPLVAERAGTDES
chain 3: TKDCPSPCTCRALETMGLWVDCRGHGLTALPALPARTRHLLLANNSLQSVPPGAFDHLPQLQTLDVTQNPWHCDCSLTYLRLWLEDRTPEALLQVRCASPSLAAHGPLGRLTGYQLGSCGWQLQASWVRPGVLWDVALVAVAALGLALLAGLLCATTEALD
notes: whole, on cells; also called S609A mutant
B2: binds [1].

B3: glycoprotein (GP) Ib-IX-V complex (GPIb-IX) of human platelets (receptor)
chain 1: HPICEVSKVASHLEVNCDKRNLTALPPDLPKDTTILHLSENLLYTFSLATLMPYTRLTQLNLDRCELTKLQVDGTLPVLGTLDLSHNQLQSLPLLGQTLPALTVLDVSFNRLTSLPLGALRGLGELQELYLKGNELKTLPPGLLTPTPKLEKLSLANNNLTELPAGLLNGLENLDTLLLQENSLYTIPKGFFGSHLLPFAFLHGNPWLCNCEILYFRRWLQDNAENVYVWKQGVDVKAMTSNVASVQCDNSDKFPVYKYPGKGCPTLGDEGDTDLYDYYPEEDTEGDKVRATRTVVKFPTKAHTTPWGLFYSWSTASLDSQMPSSLHPTQESTKEQTTFPPRWTPNFTLHMESITFSKTPKSTTEPTPSPTTSEPVPEPAPNMTTLEPTPSPTTPEPTSEPAPSPTTPEPTPIPTIATSPTILVSATSLITPKSTFLTTTKPVSLLESTKKTIPELDQPPKLRGVLQGHLESSRNDPFLHPDFCCLLPLGFYVLGLFWLLFASVVLILLLSWVGHVKPQALDSGQGAALTTATQTTHLELQRGRQVTVPRAWLLFLRGSLPTFRSSLFLWVRPNGRVGPLVAGRRPSALSQGRGQDLLSTVSIRYSGHSL
chain 2: CPAPCSCAGTLVDCGRRGLTWASLPTAFPVDTTELVLTGNNLTALPPGLLDALPALRTAHLGANPWRCDCRLVPLRAWLAGRPERAPYRDLRCVAPPALRGRLLPYLAEDELRAACAPGPLCWGALAAQLALLGLGLLHALLLVLLLCRLRRLRARARARAAARLSLTDPLVAERAGTDES
chain 3: TKDCPSPCTCRALETMGLWVDCRGHGLTALPALPARTRHLLLANNSLQSVPPGAFDHLPQLQTLDVTQNPWHCDCSLTYLRLWLEDRTPEALLQVRCASPSLAAHGPLGRLTGYQLGSCGWQLQASWVRPGVLWDVALVAVAALGLALLAGLLCATTEALD
chain 4: QPFPCPPACKCVFRDAAQCSGGDVARISALGLPTNLTHILLFGMGRGVLQSQSFSGMTVLQRLMISDSHISAVAPGTFSDLIKLKTLRLSRNKITHLPGALLDKMVLLEQLFLDHNALRGIDQNMFQKLVNLQELALNQNQLDFLPASLFTNLENLKLLDLSGNNLTHLPKGLLGAQAKLERLLLHSNRLVSLDSGLLNSLGALTELQFHRNHIRSIAPGAFDRLPNLSSLTLSRNHLAFLPSALFLHSHNLTLLTLFENPLAELPGVLFGEMGGLQELWLNRTQLRTLPAAAFRNLSRLRYLGVTLSPRLSALPQGAFQGLGELQVLALHSNGLTALPDGLLRGLGKLRQVSLRRNRLRALPRALFRNLSSLESVQLDHNQLETLPGDVFGALPRLTEVLLGHNSWRCDCGLGPFLGWLRQHLGLVGGEEPPRCAGPGAHAGLPLWALPGGDAECPGPRGPPPRPAADSSSEAPVHPALAPNSSEPWVWAQPVTTGKGQDHSPFWGFYFLLLAVQAMITVIIVFAMIKIGQLFRKLIRERALG
modifications: phosphoserine at Ser609 (the filing says Ser609 is constitutively phosphorylated in resting platelets)
notes: whole, on cells; Native complex of platelets from healthy donors; solubilised in platelet lysate in the 14-3-3 bead pull-down; also called glycoprotein Ib-IX; platelet VWF receptor
B3: no binding [2].
